Where two headings read alike, the source gives them in different places.
Assays:
[1] = biological target: T1, human CD3 on T-cell lines (CD3-expressing Jurkat cells; HUT78 cells) (human, UniProt P07766 23-207); test: flow cytometry, HUT78 cells
T1 construct: On cells it stands in the CD3/TCR complex

[2] = biological target: T2, human CD3 epsilon (Acro Cat #CDE-H5223) (human, UniProt P07766 23-126); test: SPR (Biacore), antibody captured, human CD3 epsilon analyte
T2 construct: Bought recombinant protein; also called rhCD3E
T2 sequence (P07766 23-126 limits assumed): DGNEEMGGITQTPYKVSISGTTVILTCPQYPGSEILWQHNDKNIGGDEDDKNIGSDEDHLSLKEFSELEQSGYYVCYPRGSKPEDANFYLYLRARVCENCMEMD
Protocol: (§1) Anti-Fab or anti-Fc polyclonal antibodies were immobilized onto a CM5 chip (GE Life Sciences) using amine coupling chemistry (from Amine Coupling Kit, GE Life Sciences). The immobilization steps were carried out at a flow rate of 25 μl/min in 1×HBS-EP+ buffer (GE Life Sciences; 10× Stock diluted before use). The sensor surfaces were activated for 7 min with a mixture of NHS (0.05 M) and EDC (0.2 M). The Anti-Fab or Anti-Fc antibodies were injected over all 4 flow cells at a concentration of 25 μg/mL in 10 mM sodium acetate, pH 4.5, for 7 min. Ethanolamine (1 M, pH 8.5) was injected for 7 min to block any remaining activated groups.
(§2) Off-rate and kinetic binding experiments were performed at 25° C. using 1×HBS-EP+ buffer. Test and control antibodies were injected over the anti-Fab or anti-Fc surface at concentrations of 5-10 μg/mL for 12 seconds at a flow rate of 10 μL/min on flow cells 2, 3 and 4, followed by a buffer wash for 30 seconds at the same flow rate. […] After capturing ligand (antibody) on the anti-Fc or anti-Fab surface, the analyte (human CD3 epsilon, Acro Cat #CDE-H5223) was bound for 180 seconds, followed by a 600 second dissociation phase at a flow rate of 50 μL/min. Between each ligand capture and analyte binding cycle, regeneration was carried out using two injections of 10 mM Glycine pH 2.0 for 30 seconds at 30 μL/min, followed by a 30 second buffer wash step.
(§3) The data was fit with the Biacore T200 Evaluation software, using a 1-1 Langmuir binding model. KD (affinity, nM) was determined as a ratio of the kinetic rate constants calculated from the fits of the association and dissociation phases.

[3] = biological target: T3, cynomolgus CD3 epsilon (cynomolgus monkey, UniProt Q95LI5 22-117, limits assumed); test: SPR (Biacore), antibody captured, cynomolgus CD3 epsilon analyte
T3 construct: Recombinant protein; also called cyno CD3E
T3 sequence: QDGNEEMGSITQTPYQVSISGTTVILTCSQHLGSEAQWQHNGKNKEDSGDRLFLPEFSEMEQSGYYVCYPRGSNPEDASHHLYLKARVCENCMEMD

[4] = biological target: T1, human CD3 on T-cell lines …; test: flow cytometry, HUT78 cells; remark: listed apart in the source
[5] = biological target: T1, human CD3 on T-cell lines …; test: flow cytometry, HUT78 cells; remark: listed apart in the source
[6] = biological target: T2, human CD3 epsilon (Acro Cat #CDE-H5223); test: SPR (Biacore), antibody captured, human CD3 epsilon analyte; remark: listed apart in the source
Protocol: as §1, §2, §3

[7] = biological target: T3, cynomolgus CD3 epsilon; test: SPR (Biacore), antibody captured, cynomolgus CD3 epsilon analyte; remark: listed apart in the source
[8] = biological target: T2, human CD3 epsilon (Acro Cat #CDE-H5223); test: SPR (Biacore), antibody captured, human CD3 epsilon analyte; remark: listed apart in the source
Protocol: as §1, §2, §3

T1 sequence (P07766 23-207 limits assumed): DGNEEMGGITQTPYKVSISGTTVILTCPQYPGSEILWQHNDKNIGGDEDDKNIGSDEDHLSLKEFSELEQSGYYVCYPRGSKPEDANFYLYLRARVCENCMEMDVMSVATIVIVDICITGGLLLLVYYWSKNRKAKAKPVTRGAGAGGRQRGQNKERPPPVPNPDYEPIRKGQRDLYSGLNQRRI

B1: 2037-B10-Lc8 (antibody)
heavy: not shown
light: DTQVTQSPSLSASVGDRVTITCGSSTGAVTSGYYPNWLQQKPGQAPRGLIGGTKFLAPGVPSRFSGSLSGGKATLTISSLQPEDFATYYCALWYSNRWVFGGGTKVEIKRTVAAPSVFIFPPSDEQLKSGTASVVCLLNNFYPREAKVQWKVDNALQSGNSQESVTEQDSKDSTYSLSSTLTLSKADYEKHKVYACEVTHQGLSSPVTKSFNRGEC
notes: human IgG1, kappa; also called Kappa Lc8
- Bmax (MFI) [1]: 1250 MFI
- Kd [1]: 0.3 nM
- Kd [2]: 0.493 nM
- koff [2]: 0.000267 s⁻¹
- kon [2]: 541000 M⁻¹ s⁻¹
- Kd [3]: 0.338 nM
- koff [3]: 0.000311 s⁻¹
- kon [3]: 920000 M⁻¹ s⁻¹

B2: 2037-B10-Lc5 (antibody)
heavy: not shown
light: DTQVTQSPSLSASVGDRVTITCGSSTGAVTSGYYPNWLQQKPGQAPRGLIGGTKFLAPGVPSRFSGSGSGTDFTLTISSLQPEDFATYYCALWYSNRWVFGGGTKVEIKRTVAAPSVFIFPPSDEQLKSGTASVVCLLNNFYPREAKVQWKVDNALQSGNSQESVTEQDSKDSTYSLSSTLTLSKADYEKHKVYACEVTHQGLSSPVTKSFNRGEC
notes: human IgG1, kappa; also called Kappa Lc5; Parent HC + Kappa Lc5
- HUT78 Bmax [4]: 1850
- Kd [4]: 47 nM
- Bmax (MFI) [1]: 1200 MFI
- Kd [1]: 40.7 nM
- Kd [2]: 12.2 nM
- koff [2]: 0.000464 s⁻¹
- kon [2]: 38200 M⁻¹ s⁻¹
- Kd [3]: 8.28 nM
- koff [3]: 0.000478 s⁻¹
- kon [3]: 57700 M⁻¹ s⁻¹

B3: 2037-B10-Lc2 (antibody)
heavy: not shown
light: DTQVTQSPSLSASVGDRVTITCGSSTGAVTSGYYPNWYQQKPGKAPKLLIGGTKFLAPGVPSRFSGSGSGTDFTLTISSLQPEDFATYYCALWYSNRWVFGGGTKVEIKRTVAAPSVFIFPPSDEQLKSGTASVVCLLNNFYPREAKVQWKVDNALQSGNSQESVTEQDSKDSTYSLSSTLTLSKADYEKHKVYACEVTHQGLSSPVTKSFNRGEC
notes: human IgG1, kappa; also called Kappa Lc2
- Bmax (MFI) [1]: 63 MFI
- Kd [1]: 24 nM
- binding result [2]: no binding
- binding result [3]: no binding

B4: 2037-B10-Lc9 (antibody, V domains shown)
VH: not shown
VL: DTQVTQSPSLSASVGDRVTITCGSSTGAVTSGYYPNWLQQKPGQAPRGLIGGTKFLAPGVPSRFSGSLLGGKAALTISSLQPEDFATYYCALWYSNRWVFGGGTKVEIKR
notes: human IgG1, kappa; also called Kappa Lc9
- Bmax (MFI) [1]: 1230 MFI
- Kd [1]: 0.4 nM
- Kd [2]: 0.511 nM
- koff [2]: 0.000297 s⁻¹
- kon [2]: 580000 M⁻¹ s⁻¹
- Kd [3]: 0.329 nM
- koff [3]: 0.00034 s⁻¹
- kon [3]: 1.03e+06 M⁻¹ s⁻¹

B5: 2037-B10-Lc10 (antibody, V domains shown)
VH: not shown
VL: DTQVTQSPSLSASVGDRVTITCGSSTGAVTSGYYPNWLQQKPGQAPRGLIGGTKFLAPGVPSRFSGSLLGGKAALTISSLQPEDFAEYYCALWYSNRWVFGGGTKVEIKR
notes: human IgG1, kappa; also called Kappa Lc10
- Bmax (MFI) [1]: 1240 MFI
- Kd [1]: 0.6 nM
- Kd [2]: 0.464 nM
- koff [2]: 0.000314 s⁻¹
- kon [2]: 677000 M⁻¹ s⁻¹
- Kd [3]: 0.371 nM
- koff [3]: 0.000404 s⁻¹
- kon [3]: 1.09e+06 M⁻¹ s⁻¹

B6: 2037-B10-Lc7 (antibody)
heavy: not shown
light: DTQVTQSPSLSASVGDRVTITCGSSTGAVTSGYYPNWYQQKPGKAPKLLIGGTKFLAPGVPSRFSGSLSGGKATLTISSLQPEDFATYYCALWYSNRWVFGGGTKVEIKRTVAAPSVFIFPPSDEQLKSGTASVVCLLNNFYPREAKVQWKVDNALQSGNSQESVTEQDSKDSTYSLSSTLTLSKADYEKHKVYACEVTHQGLSSPVTKSFNRGEC
notes: human IgG1, kappa; also called Kappa Lc7
- Bmax (MFI) [1]: 737 MFI
- Kd [1]: 338 nM
- binding result [2]: no binding
- binding result [3]: no binding

B7: 2037-B10_Hc-Y55D (antibody, human IgG1, lambda, V domains shown)
VH: EVQLVESGGGLVKPGGSLRLSCAASGFTFNKYAMNWVRQAPGKGLEWVARIRTKDNNYATYYADSVKDRFTISRDDSKNTAYLQMNSLKTEDTAVYYCVRHGNFGNSYISYWAYWGQGTPVTVSS
VL: QTVVTQEPSLTVSPGGTVTLTCGSSTGAVTSGYYPNWLQQKPGQAPRGLIGGTKFLAPGTPARFSGSLLGGKAALTLSGVQPEDEAEYYCALWYSNRWVFGGGTQLTVTG
notes: human IgG1, lambda; also called SRP 2037 Y55D; 2037-B10_VH-Y55D
- HUT78 Bmax [4]: 1270
- Kd [4]: 9.36 nM
- Bmax (MFI) [5]: 544 MFI
- Kd [5]: 0.27 nM
- Kd [6]: 1.31 nM
- koff [6]: 0.000372 s⁻¹
- kon [6]: 284000 M⁻¹ s⁻¹
- Kd [7]: 1 nM
- koff [7]: 0.00058 s⁻¹
- kon [7]: 579000 M⁻¹ s⁻¹
- Kd [8]: 2.45 nM
- koff [8]: 0.000277 s⁻¹
- kon [8]: 113000 M⁻¹ s⁻¹

B8: 2037-B10_Hc-Y61D (antibody, human IgG1, lambda, V domains shown)
VH: EVQLVESGGGLVKPGGSLRLSCAASGFTFNKYAMNWVRQAPGKGLEWVARIRTKYNNYATDYADSVKDRFTISRDDSKNTAYLQMNSLKTEDTAVYYCVRHGNFGNSYISYWAYWGQGTPVTVSS
VL: QTVVTQEPSLTVSPGGTVTLTCGSSTGAVTSGYYPNWLQQKPGQAPRGLIGGTKFLAPGTPARFSGSLLGGKAALTLSGVQPEDEAEYYCALWYSNRWVFGGGTQLTVTG
notes: human IgG1, lambda; also called SRP 2037 Y61D; 2037-B10_VH-Y61D
- HUT78 Bmax [4]: 804
- Kd [4]: 18.8 nM
- Bmax (MFI) [5]: 689 MFI
- Kd [5]: 0.32 nM
- Kd [6]: 1.84 nM
- koff [6]: 0.000591 s⁻¹
- kon [6]: 321000 M⁻¹ s⁻¹
- Kd [7]: 1.73 nM
- koff [7]: 0.00123 s⁻¹
- kon [7]: 709000 M⁻¹ s⁻¹
- Kd [8]: 3.42 nM
- koff [8]: 0.000379 s⁻¹
- kon [8]: 111000 M⁻¹ s⁻¹

B9: 2037-B10-Lc1 (antibody)
heavy: not shown
light: DIQMTQSPSSLSASVGDRVTITCGSSTGAVTSGYYPNWYQQKPGKAPKLLIGGTKFLAPGVPSRFSGSGSGTDFTLTISSLQPEDFATYYCALWYSNRWVFGGGTKVEIKRTVAAPSVFIFPPSDEQLKSGTASVVCLLNNFYPREAKVQWKVDNALQSGNSQESVTEQDSKDSTYSLSSTLTLSKADYEKHKVYACEVTHQGLSSPVTKSFNRGEC
notes: human IgG1, kappa; also called Kappa Lc1
- Bmax (MFI) [1]: 514 MFI
- Kd [1]: 222 nM
- binding result [2]: no binding
- binding result [3]: no binding

B10: 2037-B10-Lc3 (antibody)
heavy: not shown
light: DIQMTQSPSSLSASVGDRVTITCGSSTGAVTSGYYPNWLQQKPGQAPRGLIGGTKFLAPGVPSRFSGSGSGTDFTLTISSLQPEDFATYYCALWYSNRWVFGGGTKVEIKRTVAAPSVFIFPPSDEQLKSGTASVVCLLNNFYPREAKVQWKVDNALQSGNSQESVTEQDSKDSTYSLSSTLTLSKADYEKHKVYACEVTHQGLSSPVTKSFNRGEC
notes: human IgG1, kappa; also called Kappa Lc3
- Bmax (MFI) [1]: 1040 MFI
- Kd [1]: 62.6 nM
- Kd [2]: 7.15 nM
- koff [2]: 0.000393 s⁻¹
- kon [2]: 55000 M⁻¹ s⁻¹
- Kd [3]: 13.6 nM
- koff [3]: 0.00069 s⁻¹
- kon [3]: 50600 M⁻¹ s⁻¹

B11: 2037-B10-Lc4 (antibody)
heavy: not shown
light: DIQMTQSPSSLSASVGDRVTITCGSSTGAVTSGYYPNWYQQKPGKAPKLLIGGTKFLAPGVPSRFSGSLSGGKATLTISSLQPEDFATYYCALWYSNRWVFGGGTKVEIKRTVAAPSVFIFPPSDEQLKSGTASVVCLLNNFYPREAKVQWKVDNALQSGNSQESVTEQDSKDSTYSLSSTLTLSKADYEKHKVYACEVTHQGLSSPVTKSFNRGEC
notes: human IgG1, kappa; also called Kappa Lc4
- Bmax (MFI) [1]: 130 MFI
- Kd [1]: 30.4 nM
- binding result [2]: no binding
- binding result [3]: no binding
